This passage reports peptide exchange yield results from patent US20200000897A1 (published 2020).

A value given as a limit tells only on which side of the number the result lay.

The test addresses T1, HLA-A*03:01 (human).
T1 construct: MHC class I monomer first loaded with a UV-sensitive peptide that is cleaved by UV irradiation and exchanged for the test peptide; captured on streptavidin plates; also called peptide-receptive MHC molecules
Description: UV-ligand exchange, anti-b2m ELISA; peptide exchange yield grade (>10% +, >20% ++, >50% +++, >75% ++++). An excerpt: Candidate peptides for T cell based therapies according to the present invention were further tested for their MHC binding capacity (affinity). The individual peptide-MHC complexes were produced by UV-ligand exchange, where a UV-sensitive peptide is cleaved upon UV-irradiation and exchanged with the peptide of interest as analyzed. Only peptide candidates that can effectively bind and stabilize the peptide-receptive MHC molecules prevent dissociation of the MHC complexes. To determine the yield of the exchange reaction, an ELISA was performed based on the detection of the light chain (β2m) of stabilized MHC complexes. The assay was performed as generally described in Rodenko et al. (Rodenko et al., 2006)
96 well MAXISorp plates (NUNC) were coated over night with 2 ug/ml streptavidin in PBS at room temperature, washed 4× and blocked forl h at 37° C. in 2% BSA containing blocking buffer. Refolded HLA-A*02:01/MLA-001 monomers served as standards, covering the range of 15-500 ng/ml. Peptide-MHC monomers of the UV-exchange reaction were diluted 100-fold in blocking buffer. Samples were incubated for 1 h at 37° C., washed four times, incubated with 2 ug/ml HRP conjugated anti-β2m for 1 h at 37° C., washed again and detected with TMB solution that is stopped with […]. Absorption was measured at 450 nm.
Background: In an ELISA, binding on a coated surface is turned into a signal by an enzyme label.

B1: KLQAKVLQY (peptide)
peptide: KLQAKVLQY
Regarding B1, the peptide exchange yield was more than 75%.

B2: SLYNLGGAK (peptide)
peptide: SLYNLGGAK
Turning to B2, the peptide exchange yield was more than 75%.

B3: KINPTASLK (peptide)
peptide: KINPTASLK
B3 gave a peptide exchange yield of 50 to 75%.

B4: IVYPSATDKTK (peptide)
peptide: IVYPSATDKTK
The molecule B4 gave a peptide exchange yield of 50 to 75%.

B5: RLYDAYVNR (peptide)
peptide: RLYDAYVNR
On to B5, for which the peptide exchange yield was more than 75%.

B6: RLKMAQESVSK (peptide)
peptide: RLKMAQESVSK
Turning to B6, the peptide exchange yield is more than 75%.

B7: ALLGVIIAKK (peptide)
peptide: ALLGVIIAKK
In turn, B7 displayed a peptide exchange yield of more than 75%.

B8: AISSTVLGK (peptide)
peptide: AISSTVLGK
B8: the peptide exchange yield was more than 75%.

B9: RSYSHVVLK (peptide)
peptide: RSYSHVVLK
As to B9, the peptide exchange yield was more than 75%.

B10: KVYIPPIINK (peptide)
peptide: KVYIPPIINK
B10 had a peptide exchange yield of more than 75%.

B11: IVFPDVISK (peptide)
peptide: IVFPDVISK
With B11, the peptide exchange yield is more than 75%.

B12: ALAAKLEVK (peptide)
peptide: ALAAKLEVK
As to B12, the peptide exchange yield is more than 75%.

B13: SIINFKPLTY (peptide)
peptide: SIINFKPLTY
B13 showed a peptide exchange yield of 50 to 75%.

B14: KVLEPPLGAR (peptide)
peptide: KVLEPPLGAR
B14 returned a peptide exchange yield of 50 to 75%.

B15: VIGTTSSPK (peptide)
peptide: VIGTTSSPK
The molecule B15 displayed a peptide exchange yield of 50 to 75%.

B16: RIVDYLLEK (peptide)
peptide: RIVDYLLEK
In turn, B16 came in with a peptide exchange yield of more than 75%.

B17: RIYVYVKRK (peptide)
peptide: RIYVYVKRK
With B17, the peptide exchange yield was in the range of 50 to 75%.

B18: SSLPRAFQK (peptide)
peptide: SSLPRAFQK
Turning to B18, the peptide exchange yield was in the range of 20 to 50%.

B19: KMMKRLMTVEK (peptide)
peptide: KMMKRLMTVEK
For the molecule B19, the peptide exchange yield is more than 75%.

B20: RLYYSFKNITK (peptide)
peptide: RLYYSFKNITK
B20 showed a peptide exchange yield of more than 75%.

B21: RSKWSNVFK (peptide)
peptide: RSKWSNVFK
Consider B21, for which the peptide exchange yield was more than 75%.

B22: KVFEEPEDFLK (peptide)
peptide: KVFEEPEDFLK
In the case of B22, the peptide exchange yield was 20 to 50%.

B23: RVAEEILIK (peptide)
peptide: RVAEEILIK
B23 returned a peptide exchange yield of 50 to 75%.

B24: KVADFGLARLLK (peptide)
peptide: KVADFGLARLLK
In the case of B24, the peptide exchange yield was more than 75%.

B25: RVLPPLTRILK (peptide)
peptide: RVLPPLTRILK
In turn, B25 gave a peptide exchange yield of more than 75%.

B26: KTCQVSGLLY (peptide)
peptide: KTCQVSGLLY
Molecule B26 gave a peptide exchange yield of more than 75%.

B27: QICLPAIYK (peptide)
peptide: QICLPAIYK
B27: the peptide exchange yield is more than 75%.
